Test results published in the supplement of paper PMC7125110.
± gives the standard error. For some assays here: Variants at the floor of the assay were thinned out.

B1: glmS ribozyme (parent)
chain: AUAAAAGCGCCAGAACUACAGAAAUGUAGUUGACGAGGAGGAGGUUUAUCGAAUUUUCGGCGGAUGCCUCCAAA

How the values were obtained:
Details in all cases: with glucosamine-6-phosphate
glucosamine-6-phosphate [1] = variants of: B1; test: kcat; higher = faster cleavage; RNA array
How it was run: (§1)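 kobs was derived by fitting per-tile medians to one- or two-exponential decays after normalising signals to baseline and to non-cleaving reference variants. Those signals came from barcoded ribozyme variants transcribed in situ by E. coli RNA polymerase on sequenced MiSeq chips, followed through a hybridised Cy3 probe at 37 °C and imaged over ~14 h. Glucosamine-6-phosphate (40 μM to 10 mM) in HEPES/KCl/Mg(OAc)2 buffer was flowed in. Weighted Michaelis–Menten fits across concentrations then gave kcat and KM.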

glucosamine-6-phosphate [2] = variants of: B1; test: self-cleavage kobs at 40 uM GlcN6P; higher = faster cleavage; RNA array
How it was run: as §1

glucosamine-6-phosphate [3] = variants of: B1; test: self-cleavage kobs at 160 uM GlcN6P; higher = faster cleavage; RNA array
How it was run: as §1

glucosamine-6-phosphate [4] = variants of: B1; test: KM; higher = weaker cofactor use; RNA array
How it was run: as §1

glucosamine-6-phosphate [5] = variants of: B1; test: self-cleavage kobs at 2500 uM GlcN6P; higher = faster cleavage; RNA array
How it was run: as §1

glucosamine-6-phosphate [6] = variants of: B1; test: self-cleavage kobs at 10000 uM GlcN6P; higher = faster cleavage; RNA array
How it was run: as §1

glucosamine-6-phosphate [7] = variants of: B1; test: self-cleavage kobs at 640 uM GlcN6P; higher = faster cleavage; RNA array
How it was run: as §1

Variant	kcat (glucosamine-6-phosphate [1])	self-cleavage kobs at 40 uM GlcN6P (glucosamine-6-phosphate [2])	self-cleavage kobs at 160 uM GlcN6P (glucosamine-6-phosphate [3])	KM (glucosamine-6-phosphate [4])	self-cleavage kobs at 2500 uM GlcN6P (glucosamine-6-phosphate [5])	self-cleavage kobs at 10000 uM GlcN6P (glucosamine-6-phosphate [6])	self-cleavage kobs at 640 uM GlcN6P (glucosamine-6-phosphate [7])
AUAAAAGCGGGAGAACUACAGAAAUGUAGUUGACGAGGAGGAGGUUUAUCGAAUUUUCGGCGGAUGCCUCCAAA [C10G C11G]	< 1e-05 s⁻¹	< 1e-05 s⁻¹	< 1e-05 s⁻¹				
AUAAAUGCGCCAGAAUUACAGAAAUGUAGUUGACGAGGAGGAGGUUUAUCGAAUUUUCGGCGGAUGCUUCCAAA [A6U C16U C68U]	9.14e-05 ± 3.2e-06 s⁻¹			0.625 ± 0.12 mM	7.4e-05 ± 1.9e-05 s⁻¹	8.55e-05 ± 2e-05 s⁻¹	
AUAAAAGCGCCAGAACUACAGAAAUGUAGUUGACGAGGAGGAGGUUUAUCGAAUUGUCGGCGGAUGCCUCCAAA [U56G]	0.04 ± 0.003 s⁻¹	0.000527 ± 1.8e-05 s⁻¹	0.00186 ± 0.00015 s⁻¹	3.17 ± 0.31 mM	0.0168 ± 0.00087 s⁻¹	0.0313 ± 0.0012 s⁻¹	0.00628 ± 0.00028 s⁻¹
AUAAAAGCGCCAGAACUACAGAAAUGUAGUUGACGAGGAGGAGGUUUAUCGAAUUUUCGGCGGACGCCGCCAAA [U65C U69G]	4.17e-05 ± 1.1e-05 s⁻¹				5.5e-05 ± 2.3e-05 s⁻¹		
AUAAAAGCGCCAGAACUACAGAAAUGUAGUUGACGAGGAGGAGGUUUAUCGUAUUUUCGGCGGAUGCCUCUAAA [A52U C71U]	0.000457 ± 4e-05 s⁻¹			2.13 ± 0.39 mM	0.000275 ± 2.9e-05 s⁻¹	0.000362 ± 3.4e-05 s⁻¹	0.0001 ± 1.4e-05 s⁻¹
AUAAAAGCGCCAGAACUACAGAAAUGUAGUUGACGAGGAGGAGGUUUAUCAAAAUUUCGGCGGAUGCCUCCAAA [G51A U54A]	< 1e-05 s⁻¹						
AUAAAAGCGCCAGAACUACAGAAAUGUAGUCGACGAGGAGGAGGUUAAUCGAAUUUUCGGCGGAUGCCUCCAAA [U31C U47A]	0.00379 ± 0.00061 s⁻¹	8.24e-05 ± 1.4e-05 s⁻¹	0.000354 ± 7.7e-05 s⁻¹	1.8 ± 0.46 mM	0.00178 ± 0.00031 s⁻¹	0.00367 ± 0.00049 s⁻¹	0.00107 ± 0.00022 s⁻¹
AUAAAAGCGCCAGAACUACAGAAAUGUAGAUGACGAGGAGGAGGUUUAUCGAAUUUUCGGCGGAUGCCACCAAA [U30A U69A]	5.09e-05 ± 2.2e-05 s⁻¹		5.73e-05 ± 2.4e-05 s⁻¹		9.65e-05 ± 1.8e-05 s⁻¹	3.22e-05 ± 1.1e-05 s⁻¹	
AUAAAAGCGCCGGAACUACAGAAAUGUAGUUGACGAGGAAGAGGUUUAUCGAAUUUUCGGCGGAUGCCUCCAAA [A12G G40A]	0.000633 ± 0.00014 s⁻¹		1.6e-05 ± 7.3e-06 s⁻¹	4.04 ± 1.3 mM	0.000218 ± 2.3e-05 s⁻¹	0.000486 ± 6.3e-05 s⁻¹	9.61e-05 ± 8.9e-06 s⁻¹
AUAAAAGCGCCCGAACUACAGAAAUGUAGUUGACGAGGAGGAGGUUUCUCGAAUUUUCGGCGGAUGCCUCCAAA [A12C A48C]	0.000151 ± 3.5e-05 s⁻¹				4.89e-05 ± 1.2e-05 s⁻¹	0.000111 ± 1.2e-05 s⁻¹	3.34e-05 ± 1.1e-05 s⁻¹
AUAAAAGCGCUAGAACUACAGAAAUGUAGUUGACGAGGAGGAGGUUUAUCGAACUCUCGGCGGAUGCCUCCAAA [C11U U54C U56C]	0.000628 ± 6.2e-05 s⁻¹			8.41 ± 1.2 mM	0.000151 ± 4.7e-05 s⁻¹	0.000337 ± 9.5e-05 s⁻¹	4.18e-05 ± 1.9e-05 s⁻¹
AUAAAAGCGCCAGCACUACAGAAAUGUAGUUGACGAGGAGGAGGUUUCUCGAAUUUUCGGCGGAUGCCUCCAAA [A14C A48C]	5.79e-05 ± 1.1e-05 s⁻¹				4.95e-05 ± 1.2e-05 s⁻¹	4.92e-05 ± 1.2e-05 s⁻¹	
AUAAAAGCGCCAGAACUACAGAAAUGUAGUUGACGAGGAGGAGGUCUAUCGAAUUUGCGGCGGAUGCCUCCAAA [U46C U57G]	1.4e-05 ± 2.4e-06 s⁻¹						
AUAAAAGCGCCAGAACUACAGAAAUGUAGUUGACGAAGAGGAGGUUUAUCGGAUUUUCGGCGGAUGCCUCCAAA [G37A A52G]	0.000162 ± 8.6e-06 s⁻¹			3.42 ± 0.44 mM	6.77e-05 ± 1.2e-05 s⁻¹	0.000121 ± 1.5e-05 s⁻¹	
AUAAAAGCGCCAGAACUACAGAAAUGUAGUUGACGAGGAGGAGGUUUAUCGAAUUUACGGCGGAUGCCUGCAAA [U57A C70G]	3.91e-05 ± 1.5e-05 s⁻¹				6.55e-05 ± 1.6e-05 s⁻¹		4.96e-05 ± 1.4e-05 s⁻¹
AUAAAAGCGUCAGAACUACAGAAAUGUAGUUGACGAGGAGGAGGUUUAUCGAGUUUUCGGCGGAUGCCUCCAAA [C10U A53G]	2.78e-05 ± 1.2e-06 s⁻¹	< 1e-05 s⁻¹		6.42 ± 0.6 mM		1.69e-05 ± 7.4e-06 s⁻¹	
AUAAAAGCGCCAGAACUACAGAAAUGUAGUUGACGAGGAGGAGGUUUAUCGAAUCUUCAGCGGAUGCCUCCAAA [U55C G59A]	0.000118 ± 2.1e-05 s⁻¹			4.9 ± 1.9 mM	3.74e-05 ± 1.1e-05 s⁻¹	7.97e-05 ± 1.4e-05 s⁻¹	
AUAAAAGCGCCAGAACUACAGAAAUGUAGUUGACGAGGAGGAGGAUUAUCGAAUUCUCGGCGGAUGCCUCCAAA [U45A U56C]	0.00585 ± 0.0022 s⁻¹	7.22e-05 ± 1e-05 s⁻¹	0.000234 ± 3.5e-05 s⁻¹	3.07 ± 1.4 mM	0.00259 ± 0.00069 s⁻¹	0.00411 ± 0.00072 s⁻¹	0.0014 ± 0.00014 s⁻¹
AUAAACGCGCCAAAACUACAGAAAUGUAGUUGACGUGGAGGAGGUUUAUCGAAUUGUCGGCGGAUGCCUCCAAA [A6C G13A A36U U56G]	< 1e-05 s⁻¹	< 1e-05 s⁻¹			< 1e-05 s⁻¹		
